Measurements from article PMC7363588, “Mapping of the FGF14:Nav1.6 complex interface reveals FLPK as a functionally active peptide modulating excitability” (Physiological Reports, 2020).

B1: CLuc-FGF14 [human] / CD4-Nav1.6 C-tail-NLuc [human] (parent)
chain 1: MVKPVPLFRRTDFKLLLCNHKDLFFLRVSKLLDCFSPKSMWFLWNIFSKGTHMLQCLCGKSLKKNKNPTDPQLKGIVTRLYCRQGYYLQMHPDGALDGTKDDSTNSTLFNLIPVGLRVVAIQGVKTGLYIAMNGEGYLYPSELFTPECKFKESVFENYYVIYSSMLYRQQESGRAWFLGLNKEGQAMKGNRVKKTKPAAHFLPKPLEVAMYREPSLHDVGETVPKPGVTPSKSTSASAIMNGGKPVNKSKTT
chain 2: IVVNMYIAIILENFSVATEESADPLSEDDFETFYEIWEKFDPDATQFIEYCKLADFADALEHPLRVPKPNTIELIAMDLPMVSGDRIHCLDILFAFTKRVLGDSGELDILRQQMEERFVASNPSKVSYEPITTTLRRKQEEVSAVVLQRAYRGHLARRGFICKKTTSNKLENGGTHREKKESTPSTASLPSYDSVTKPEKEKQQRAEEGRRERAKRQKEVRESKC

Variants of: B1
Test: split-luciferase complementation assay (LCA) in HEK293 cells
Settings: with CD4-Nav1.6 C-tail-NLuc [human], DMSO vehicle control of the same pair = 100, read off a plot

Row | screen value (% Luminescence (RLU)) (EYYV peptide 50 µM present) | screen value (% Luminescence (RLU)) (FLPK peptide 50 µM present) | screen value (% Luminescence (RLU)) (PLEV peptide 50 µM present) | Variant
1 | 79 | 100 | 72 | chain 1 Y158N V160N
2 | 100 | 87 | 110 | chain 1 Y158A
3 | 93 | 91 | 94 | chain 1 V160A
4 | 100 | 99 | 110 | chain 1 Y158A V160A
